Test results: PMC8809517, “Cofactor-independent RNA editing by a synthetic S-type PPR protein”
Substitutions are numbered along the chain they refer to.

Legend:
Assay in all cases: high-throughput RNA pulldown from lysate on Ni-NTA beads; HRP: 50 mM Tris pH 8, 150 mM NaCl, 1 mM beta-mercaptoethanol, 50 ug/ml BSA, 3 ug/ml yeast RNA, 0.5% heparin; ITC and FP: Tris pH 8, 200 mM KCl, 5% glycerol; MST: 50 mM Tris pH 8, 200 mM NaCl, 1 mM DTT, BSA, heparin, 0.05% Tween 20
Details in all cases: tags: N-terminal His-eGFP
[1] = target: T1, GFP-9S library array, motif 4 ND N98Y;D124G (synthetic construct, N98Y;D124G)
T1 chain: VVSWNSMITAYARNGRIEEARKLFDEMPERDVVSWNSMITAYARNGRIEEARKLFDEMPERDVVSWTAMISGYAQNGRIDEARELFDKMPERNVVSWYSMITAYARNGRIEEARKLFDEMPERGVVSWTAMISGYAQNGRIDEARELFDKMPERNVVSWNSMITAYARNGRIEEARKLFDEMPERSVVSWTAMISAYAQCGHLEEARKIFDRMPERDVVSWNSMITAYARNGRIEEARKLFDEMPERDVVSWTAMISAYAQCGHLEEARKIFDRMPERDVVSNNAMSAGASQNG

[2] = target: T2, GFP-9S library array, motif 4 ND D124S (synthetic construct, D124S)
T2 chain: T1 chain with Y98N, G124S

[3] = target: T3, GFP-9S library array, motif 4 ND N98Q;D124K (synthetic construct, N98Q;D124K)
T3 chain: T1 chain with Y98Q, G124K

[4] = target: T4, GFP-9S library array, motif 4 ND N98L;D124L (synthetic construct, N98L;D124L)
T4 chain: T1 chain with Y98L, G124L

[5] = target: T5, GFP-9S library array, motif 4 ND N98G;D124N (synthetic construct, N98G;D124N)
T5 chain: T1 chain with Y98G, G124N

AUUAAACGUGA (ssRNA) [IR-rpoA-A]
Kd ([1]; label: 5' IRDye 800CW): 567 nM | Kd ([2]; label: 5' IRDye 800CW): 162 nM | Kd ([3]; label: 5' IRDye 800CW): 257 nM | Kd ([4]; label: 5' IRDye 800CW): 157 nM | Kd ([5]; label: 5' IRDye 800CW): 41.2 nM

AUUACACGUGA (ssRNA) [Cy5-rpoA]
Kd ([1]; label: 5' Cy5): 183 nM | Kd ([2]; label: 5' Cy5): 2.01 nM | Kd ([3]; label: 5' Cy5): 91.3 nM | Kd ([4]; label: 5' Cy5): 74.9 nM | Kd ([5]; label: 5' Cy5): 155 nM

AUUAGACGUGA (ssRNA) [Cy5-rpoA-G]
Kd ([1]; label: 5' Cy5): 177 nM | Kd ([2]; label: 5' Cy5): 522 nM | Kd ([3]; label: 5' Cy5): 109 nM | Kd ([4]; label: 5' Cy5): 76.1 nM | Kd ([5]; label: 5' Cy5): 276 nM

AUUAUACGUGA (ssRNA) [IR-rpoA-U]
Kd ([1]; label: 5' IRDye 800CW): 211 nM | Kd ([2]; label: 5' IRDye 800CW): 5.07 nM | Kd ([3]; label: 5' IRDye 800CW): 159 nM | Kd ([4]; label: 5' IRDye 800CW): 158 nM | Kd ([5]; label: 5' IRDye 800CW): 82.7 nM
